Conditions in all cases: both partners purified
Assay [1] has as its target T1, full-length human Bcl-2 protein (human, UniProt P10415 1-239).
T1 construct: three additional N-terminal residues left by the design of the pET-15b expression vector; Bcl-2 (B-cell lymphoma 2), human, full length, 239 aa; 15N (or 13C,15N) uniformly labelled for NMR; Surmise: GSH is what is left after the pET-15b His tag is cut off with thrombin; also called B-cell lymphoma 2; intact human Bcl-2; source: in DPC micelles
The assay can be described thus: NMR titration; Nur77 peptide added at 1:6, 1:12 and 1:24 molar ratio to 0.3 mM Bcl-2; 1H-15N TROSY-HSQC, chemical shift perturbations; 5 mM DPC micelles, 20 mM NaPi, 20 mM NaCl, 2 mM TCEP, pH 6.0.

For assay [2], the target named is T2, Bim (138-174) BH3 peptide from Homo sapiens (Homo sapiens, N-terminal acetyl (Ac-); C-terminal amide (-NH2)).
T2 construct: Bim, Homo sapiens, residues 138-174; The peptide formed a colloidal suspension in buffer; spectra were recorded on clear samples after centrifugation; also called Bim-BH3 peptide; Bim peptide; source: synthetic peptide, bought: GenScript
T2 sequence (peptide, as listed by the source): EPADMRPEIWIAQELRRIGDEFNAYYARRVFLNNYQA
Description: NMR titration; Bim-BH3 peptide added at 1:1, 1:3 and 1:6 molar ratio to 0.4 mM Bcl-2ΔN(1-82); 1H-15N TROSY-HSQC; 5 mM DPC micelles, 20 mM NaPi, 20 mM NaCl, 2 mM TCEP, pH 6.0; clear samples after centrifugation.

Assay [3] concerns the target T1, full-length human Bcl-2 protein. Description: NMR titration; Bax-BH3 peptide added at 1:1, 1:3, 1:6 and 1:12 molar ratio to 0.3 mM Bcl-2 or 0.25 mM Bcl-2 ΔTM; 1H-15N TROSY-HSQC, chemical shift perturbations; 5 mM DPC micelles, 20 mM NaPi, 20 mM NaCl, 2 mM TCEP, pH 6.0, 310 K.
Assay [4] addresses T3, Bcl-2 ΔTM (aa 1-207) (human, UniProt P10415 1-207).
T3 construct: three additional N-terminal residues left by the design of the pET-15b expression vector; Bcl-2, human, residues 1-207; a stop codon ends the protein at position 207; 15N labelled for NMR; Made from the full-length construct by site-directed mutagenesis (stop codon TAA); also called Bcl-2 ∆TM; soluble variant with the C-terminal anchor removed; source: E. coli, pET-15b, purified as the …
Described as above.

T3 sequence (P10415 other isoform, or with tags, fused parts or gaps mutant): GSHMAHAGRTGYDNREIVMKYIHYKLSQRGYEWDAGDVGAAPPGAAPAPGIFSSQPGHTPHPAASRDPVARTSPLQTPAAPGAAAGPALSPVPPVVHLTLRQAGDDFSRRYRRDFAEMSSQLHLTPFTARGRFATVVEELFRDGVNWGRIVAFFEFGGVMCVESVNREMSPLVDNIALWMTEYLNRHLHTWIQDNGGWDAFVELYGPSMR

B1: Nur77 peptide (peptide)
peptide: Ac-FSRSLHSLL-NH2
notes: Nur77 (NR4A1), 9-residue peptide; source: synthetic peptide, bought: GenScript
Consider B1, for which, in assay [1], the binding result is on record as “binds”.

B2: Bcl-2 ΔN(1-82) (domain or fragment, human)
chain: GSHMGPALSPVPPVVHLTLRQAGDDFSRRYRRDFAEMSSQLHLTPFTARGRFATVVEELFRDGVNWGRIVAFFEFGGVMCVESVNREMSPLVDNIALWMTEYLNRHLHTWIQDNGGWDAFVELYGPSMRPLFDFSWLSLKTLLSLALVGACITLGAYLGHK
notes: three additional N-terminal residues left by the design of the pET-15b expression vector; added start methionine: the construct starts its N-terminus with residues MGP (M before G83, P84); Bcl-2, human, the first 82 N-terminal amino acids deleted, C-terminal residues kept (full length is 239 aa); Gene bought from GenScript and sub-cloned into pET-15b; source: E. coli, pET-15b, purified as the …
As for B2, in assay [2], the binding result is given as “binds”.

B3: 36-mer Bax-BH3 peptide from Mus musculus (peptide)
peptide: Ac-QPPQDASTKKLSECLRRIGDELDSNMELQRMIADVD-NH2
notes: Bax, Mus musculus, BH3 region, 36 residues; also called Bax-derived BH3 peptide; source: synthetic peptide, bought: GenScript
B3: the binding result in assay [3] and in assay [4] was “binds” each time.

(Values after paper PMC8079415, “Neutron reflectometry and NMR spectroscopy of full-length Bcl-2 protein reveal its membrane localization and conformation” (Communications Biology, 2021).)
